Target: MASP (MBL-associated serine proteases) purified from an MBL deficient individual
Assay: cell-based or functional assay

## recombinant human mannan binding lectin (MBL) (from UniProt P11226 21-248)
  C4-activation compared to the reference N105-11A (EC50 = 100%); PE0407 5 mg/ml with 1 mM CaCl2, T = 2 months at +4° C.: 92%
  C4-activation compared to the reference N105-11A (EC50 = 100%); PE0407 5 mg/ml with 1 mM CaCl2, T = 2 months at +37° C.: 94%
  C4-activation compared to the reference N105-11A (EC50 = 100%); PE0407 5 mg/ml with 1 mM CaCl2, T = 2 months at -20° C.: 91%
  C4-activation compared to the reference N105-11A (EC50 = 100%); control 5 mg/ml without calcium, T = 2 months at 37° C.: 19%
  C4-activation, EC50% relative to a MBL standard; PE0305 10 mg/ml, T = 0 months (% relative to MBL standard): 94
  C4-activation, EC50% relative to a MBL standard; PE0305 10 mg/ml, T = 2½ months at +4° C. (% relative to MBL standard): 78
  C4-activation, EC50% relative to a MBL standard; PE0305 10 mg/ml, T = 2½ months at +37° C. (% relative to MBL standard): 36
  C4-activation, EC50% relative to a MBL standard; PE0305 10 mg/ml, T = 2½ months at -20° C. (% relative to MBL standard): 81
  C4-activation, EC50% relative to a MBL standard; PE0305 10 mg/ml, T = 5 months at +4° C. (% relative to MBL standard): 80.3
  C4-activation, EC50% relative to a MBL standard; PE0305 10 mg/ml, T = 5 months at +37° C. (% relative to MBL standard): 14.3
  C4-activation, EC50% relative to a MBL standard; PE0305 10 mg/ml, T = 5 months at -20° C. (% relative to MBL standard): 81.7
  C4 activation assay, EC50 relative to reference (100%); PE0238 1 mg/ml, 12 months at +4 degree (% of reference): 105
  C4 activation assay, EC50 relative to reference (100%); PE0238 1 mg/ml, 12 months at -20 degree (% of reference): 104
